Patent US20230287125A1 (LEPU BIOPHARMA, published 2023)
Blank lines part the entries; values can stand above or below the binder they belong to.

Legend:
human PD-L1-Fc protein [1] = molecular target: T1, human PD-L1-Fc protein (human, UniProt Q9NZQ7 19-238); experiment: receptor blocking ELISA: coated human PD-L1-Fc, blocked ligand biotin-labeled human PD-1-Fc (Bio-PD1), OD 450nm; upper right panel (with Hu47C6A3-2)
T1 construct: coating antigen of the ELISAs; also called rhPD-L1-Fc; not shown: Fc
T1 sequence (Q9NZQ7 19-238 limits assumed): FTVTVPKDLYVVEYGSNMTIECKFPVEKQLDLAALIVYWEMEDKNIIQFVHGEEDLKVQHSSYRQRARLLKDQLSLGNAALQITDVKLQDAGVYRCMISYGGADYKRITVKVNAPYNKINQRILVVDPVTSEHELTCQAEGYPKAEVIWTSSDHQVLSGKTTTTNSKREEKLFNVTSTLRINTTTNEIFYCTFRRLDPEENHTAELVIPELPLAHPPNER
Experimental: (§1) Briefly, microtiter plates were coated with human PD-L1-Fc protein at 0.5 μg/ml in PBS, 100 μl/well at 4° C. overnight, then blocked with 150 μl/well of 1% BSA at 37° C. for 2 hours. […] The plates were washed with PBS/Tween and then incubated with Streptavidin-HRP for 10 mins at 37° C. After washing, the plates were developed with TMB substrate and analyzed by spectrophotometer at OD 450 nm.

human PD-L1-Fc protein [2] = molecular target: T1, human PD-L1-Fc protein; experiment: receptor blocking ELISA: coated human PD-L1-Fc, blocked ligand biotin-labeled human CD80-Fc (Bio-CD80), OD 450nm; upper left panel (with Hu47C6A3-1)
Experimental: as §1

human PD-L1-Fc protein [3] = molecular target: T1, human PD-L1-Fc protein; experiment: ELISA, antibody titrated on coated human PD-L1-Fc, OD 450nm; lower left panel (with Hu47C6A3-3)
Experimental: (§2) To evaluate antigen binding activity, the humanized antibodies were subjected to ELISA test. Briefly, microtiter plates were coated with human PD-L1-Fc protein at 0.5 μg/ml in PBS, 100 μl/well at 4° C. overnight, then blocked with 200 μl/well of 1% BSA. Three-fold dilutions of humanized antibodies starting from 10 μg/ml were added to each well and incubated for 1 hour at 37° C. The plates were washed with PBS/Tween and then incubated with mouse-anti-human IgG Fab antibody conjugated with Horse Radish Peroxidase (HRP) for 1 hour at 37° C. After washing, the plates were developed with TMB substrate and analyzed by spectrophotometer at OD 450 nm.

human PD-L1-Fc protein [4] = molecular target: T1, human PD-L1-Fc protein; experiment: receptor blocking ELISA: coated human PD-L1-Fc, blocked ligand biotin-labeled human CD80-Fc (Bio-CD80), OD 450nm; upper right panel (with Hu47C6A3-2)
Experimental: as §1

human PD-L1-Fc protein [5] = molecular target: T1, human PD-L1-Fc protein; experiment: ELISA, antibody titrated on coated human PD-L1-Fc, OD 450nm; upper left panel (with Hu47C6A3-1)
Experimental: as §2

human PD-L1-Fc protein [6] = molecular target: T1, human PD-L1-Fc protein; experiment: receptor blocking ELISA: coated human PD-L1-Fc, blocked ligand biotin-labeled human PD-1-Fc (Bio-PD1), OD 450nm; lower left panel (with Hu47C6A3-3)
Experimental: as §1

cynomolgus PD-L1 protein = cynomolgus PD-L1 protein (cynomolgus, UniProt G7PSE7 19-238); experiment: ELISA, coated cynomolgus PD-L1
Sequence of cynomolgus PD-L1 protein (G7PSE7 entry or part of it): as the sequence (Q9NZQ7 19-238 limits assumed) above, with A33T, A34S, S62N, R68Q, Q82R, F173L, T185A, T192I, H215L counted along it
Experimental: (§3) ELISA testing was carried out to evaluate the binding of chimeric antibodies to human, mouse, rat, and cynomolgus PD-L1, respectively.
(§4) Briefly, microtiter plates were coated with human, mouse, rat and cynomolgus PD-L1 proteins at 0.5 μg/ml in PBS, 100 μl/well at 4° C. overnight, then blocked with 150 μl/well of 1% BSA. Three-fold dilutions of chimeric antibodies starting from 10 μg/ml were added to each well and incubated for 1 hour at 37° C. The plates were washed with PBS/Tween and then incubate with mouse-anti-human IgG Fab antibody conjugated with Horse Radish Peroxidase (HRP) for 30 mins at 37° C. After washing, the plates were developed with TMB substrate and analyzed by spectrophotometer at OD 450 nm.

rat PD-L1 protein = rat PD-L1 protein (rat, UniProt D4AE25 19-239); experiment: ELISA, coated rat PD-L1
Sequence of rat PD-L1 protein (D4AE25 entry or part of it limits assumed): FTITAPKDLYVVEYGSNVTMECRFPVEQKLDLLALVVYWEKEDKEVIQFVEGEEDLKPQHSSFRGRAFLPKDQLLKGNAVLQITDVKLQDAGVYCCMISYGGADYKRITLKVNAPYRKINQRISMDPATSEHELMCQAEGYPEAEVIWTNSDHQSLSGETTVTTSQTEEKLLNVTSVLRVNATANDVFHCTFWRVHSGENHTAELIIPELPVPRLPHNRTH
Experimental: as §3, §4

human PD-L1-Fc protein [7] = molecular target: T1, human PD-L1-Fc protein; experiment: ELISA, coated human PD-L1 (PD-L1-Fc per paragraph 110)
Experimental: as §1, with “1% BSA.” for “1% BSA at 37° C. for 2 hours.”, “with Mouse-anti-human IgG Fab antibody conjugated with Horse Radish Peroxidase (HRP)” for “with Streptavidin-HRP”, “for 30” for “for 10”
as §4

human PD-L1-Fc protein [8] = molecular target: T1, human PD-L1-Fc protein; experiment: competition ELISA, coated human PD-L1-Fc, biotin-labeled human PD-1-Fc as competitor
Experimental: as §1, with “BSA.” for “BSA at 37° C. for 2 hours.”

human PD-L1-Fc protein [9] = molecular target: T1, human PD-L1-Fc protein; experiment: ELISA, antibody titrated on coated human PD-L1-Fc, OD 450nm; upper right panel (with Hu47C6A3-2)
Experimental: as §2

[10] = molecular target: T2, human PD-L1 over-expressed on CHOK1 cells (human, UniProt Q9NZQ7 19-290); experiment: flow cytometry (MFI) on PDL1-CHOK1 cells; upper left panel (with Hu47C6A3-1 to -3)
T2 construct: whole, on cells; also called PDL1-CHOK1 cells
T2 sequence (Q9NZQ7 19-290): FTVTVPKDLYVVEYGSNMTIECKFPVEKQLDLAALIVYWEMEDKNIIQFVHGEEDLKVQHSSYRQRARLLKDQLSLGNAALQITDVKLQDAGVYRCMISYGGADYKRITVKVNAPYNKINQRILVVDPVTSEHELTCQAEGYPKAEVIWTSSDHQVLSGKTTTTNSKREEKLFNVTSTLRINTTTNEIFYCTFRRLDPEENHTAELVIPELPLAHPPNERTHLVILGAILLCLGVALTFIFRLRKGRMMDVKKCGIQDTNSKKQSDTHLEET
Experimental: (§5) To evaluate the antigen binding property, the humanized antibodies were analyzed for their binding to PD-L1 overexpressed on mammalian cells by FACS. Briefly, PDL1-CHOK1 cells were firstly incubated with 3-fold serious diluted humanized antibodies starting at 15 μg/ml at 4° C. for 40 mins. After washed by PBS, the Alexa Fluor® 647 AffiniPure Goat Anti-Human IgG (H+L) antibody was added to each well and incubated at 4° C. for 30 mins. The MFI of Alexa Fluor® 647 was evaluated by FACSCanto.

mouse PD-L1 protein = mouse PD-L1 protein (mouse, UniProt Q9EP73 19-239); experiment: ELISA, coated mouse PD-L1
Sequence of mouse PD-L1 protein (Q9EP73 19-239 limits assumed): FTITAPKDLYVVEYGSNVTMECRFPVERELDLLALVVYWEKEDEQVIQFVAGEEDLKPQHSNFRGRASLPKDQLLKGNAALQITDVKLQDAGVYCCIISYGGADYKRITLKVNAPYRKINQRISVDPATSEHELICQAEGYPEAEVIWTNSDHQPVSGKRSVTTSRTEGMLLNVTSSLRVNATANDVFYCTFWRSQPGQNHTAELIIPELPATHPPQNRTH
Experimental: as §3, §4

[11] = molecular target: T2, human PD-L1 over-expressed on CHOK1 …; experiment: flow cytometry on PDL1-CHOK1 cells
Experimental: After washing by PBS, Alexa Fluor® 647 AffiniPure Goat Anti-Human IgG (H+L) was added to each well and incubated at 4° C. for 30 mins. Samples were washed twice with FACS buffer. The mean florescence intensity (MFI) of Alexa Fluor® 647 was evaluated by FACSCanto.

human PD-L1-Fc protein [12] = molecular target: T1, human PD-L1-Fc protein; experiment: receptor blocking ELISA: coated human PD-L1-Fc, blocked ligand biotin-labeled human CD80-Fc (Bio-CD80), OD 450nm; lower left panel (with Hu47C6A3-3)
Experimental: as §1

[13] = molecular target: T3, human PD-L1-his tag protein (human, UniProt Q9NZQ7 19-238); experiment: SPR (Biacore T200), mAb captured on Protein A chip, PD-L1-his injected
T3 construct: also called human PD-L1-His protein; recombinant PD-L1 protein; not shown: his tag
T3 sequence (Q9NZQ7 19-238 limits assumed): as the sequence (Q9NZQ7 19-238 limits assumed) above
Experimental: A serial dilution of human PD-L1-his tag protein was injected over captured antibody for 2 mins at a flow rate of 30 μl/min. The antigen was allowed to dissociate for 480-1500 s. All the experiment were carried out on a Biacore T200. Data analysis was carried out using Biacore T200 evaluation software.

human PD-L1-Fc protein [14] = molecular target: T1, human PD-L1-Fc protein; experiment: ELISA, antibody titrated on coated human PD-L1-Fc, OD 450nm; upper left panel
Experimental: as §2

human PD-L1-Fc protein [15] = molecular target: T1, human PD-L1-Fc protein; experiment: receptor blocking ELISA: coated human PD-L1-Fc, blocked ligand biotin-labeled human CD80-Fc (Bio-CD80), OD 450nm; middle left panel
Experimental: as §1

[16] = molecular target: T2, human PD-L1 over-expressed on CHOK1 …; experiment: flow cytometry (MFI) on PDL1-CHOK1 cells; upper right panel
Experimental: as §5

[17] = molecular target: T3, human PD-L1-his tag protein; experiment: SPR (Biacore T200), mAb captured on Protein A chip, PD-L1-his injected; remark: listed apart in the source
Experimental: The binding of the humanized antibodies to recombinant PD-L1 protein (human PD-L1-his tag) was tested by Biacore using a capture method. […] A serial dilution of human PD-L1-his tag protein was injected over captured antibody for 2 mins at a flow rate of 30 μl/min. The antigen was allowed to dissociate for 1500 s. All the experiment were carried out on a Biacore T200.

[18] = molecular target: T3, human PD-L1-his tag protein; experiment: SPR (Biacore), affinity ranking, PDL1-His
human PD-L1-Fc protein [19] = molecular target: T1, human PD-L1-Fc protein; experiment: receptor blocking ELISA: coated human PD-L1-Fc, blocked ligand biotin-labeled human PD-1-Fc (Bio-PD1), OD 450nm; middle left panel
Experimental: as §1

IC50 (human PD-L1-Fc protein [1]): 0.0857 µg/mL
IC50 (human PD-L1-Fc protein [2]): 0.436 µg/mL
EC50 (human PD-L1-Fc protein [3]): 0.0176 µg/mL
IC50 (human PD-L1-Fc protein [4]): 0.395 µg/mL
EC50 (human PD-L1-Fc protein [5]): 0.0115 µg/mL
IC50 (human PD-L1-Fc protein [6]): 0.099 µg/mL
EC50 (cynomolgus PD-L1 protein): 0.00634 µg/mL
EC50 (human PD-L1-Fc protein [7]): 0.0102 µg/mL
IC50 (human PD-L1-Fc protein [8]): 0.0912 µg/mL
EC50 (human PD-L1-Fc protein [9]): 0.0124 µg/mL
EC50 [10]: 0.113 nM
EC50 [11]: 0.148 nM
IC50 (human PD-L1-Fc protein [12]): 0.439 µg/mL
Kd [13]: 0.366 nM
koff [13]: 0.000678 s⁻¹
kon [13]: 1.85e+06 M⁻¹ s⁻¹
B1: 47C6A3 chimeric mAb (antibody, V domains shown)
VH: DVQLQESGPGLVKPSQSLSLTCTVTGYSITSDYAWNWIRQFPGNKLEWMGYIIYSGSTSYNPSLKSRISITRDTSKNQFFLQLNSVTTEDTATYYCARSTMIATNWFAYWGQGTLVTVSA
VL: DIVMTQSHKFMSTSVVDRVSITCKASQDVSLAVAWYQQKPGQSPKLLIYWASTRHTGVPDRFTGSGSGTDFALTISSVQAEDLALYYCQQHYITPWTFGGGTKLEIK
notes: chimeric mAb of the hybridoma clone; also called 47C6A3-chimera
binding result (rat PD-L1 protein): no binding (tested: dilutions starting from 10 µg/ml)
binding result (mouse PD-L1 protein): no binding (tested: dilutions starting from 10 µg/ml)

EC50 (human PD-L1-Fc protein [14]): 0.0133 µg/mL
IC50 (human PD-L1-Fc protein [15]): 0.344 µg/mL
EC50 [16]: 0.115 nM
Kd [17]: 0.0431 nM
koff [17]: 7.92e-05 s⁻¹
kon [17]: 1.84e+06 M⁻¹ s⁻¹
Kd [18]: 0.037 nM
koff [18]: 9.71e-05 s⁻¹
kon [18]: 2.62e+06 M⁻¹ s⁻¹
IC50 (human PD-L1-Fc protein [19]): 0.127 µg/mL
B2: Hu67F3G7-5 (antibody, V domains shown)
VH: EVQLVQSGAEVKKPGASVKVSCKASGYIFTDFWVSWVRQAPGKGLEWIGEIYPNSGVSRYNEKFKGRVTMTVDKSISTAYMELSRLRSDDTAVYYCTKYFGYTYWFGYWGQGTLVTVSS
VL: DIQMTQSPSSLSASVGDRVTITCRASKSVSTYMHWYQQKPGKAPKLLIYSASHLESGVPSRFSGSGSGTDFTLTISSLQPEDFATYYCQQSNELPVTFGGGTKVEIK
notes: humanized
